According to US20070105771A1 (Y S THERAPEUTICS, published 2007):

Legend:
[1] = target: T1, human CD26-derived 13 mer peptide 47 (human); experiment: peptide microarray
T1 peptide: RQLITEERIPNNT
Method: (§1) The overnight incubation was followed by three washings with each of PBS buffer pH 7.5 and water. The microarrays were then scanned using ArrayWorx-Microarray Scanner.
(§2) The SPOT recognition software package ArrayPro was used for data analysis. The mean of signal intensities from 3 identical subarrays on each microarray image was used for data evaluation.

[2] = target: T2, human CD26-derived 13 mer peptide 14 (human); experiment: peptide microarray
T2 peptide: NNILVFNAEYGNS
Method: as §1, §2

[3] = target: T3, human CD26-derived 13 mer peptide 26 (human); experiment: peptide microarray
T3 peptide: FGHSINDYSISPD
Method: as §1, §2

[4] = target: T4, human CD26-derived 13 mer peptide 24 (human); experiment: peptide microarray
T4 peptide: TFDEFGHSINDYS
Method: as §1, §2

[5] = target: T5, human CD26-derived 13 mer peptide 87 (human); experiment: peptide microarray
T5 peptide: GTFLAYAQFNDTE
Method: as §1, §2

[6] = target: T6, human CD26-derived 13 mer peptide 25 (human); experiment: peptide microarray
T6 peptide: DEFGHSINDYSIS
Method: as §1, §2

[7] = target: T7, human CD26-derived 13 mer peptide 21 (human); experiment: peptide microarray
T7 peptide: VFLENSTFDEFGH
Method: as §1, §2

[8] = target: T8, human CD26-derived 13 mer peptide 18 (human); experiment: peptide microarray
T8 peptide: EYGNSSVFLENST
Method: as §1, §2

[9] = target: T9, human CD26-derived 13 mer peptide 9 (human); experiment: peptide microarray
T9 peptide: SDHEYLYKQENNI
Method: as §1, §2

[10] = target: T10, human CD26-derived 13 mer peptide 114 (human); experiment: peptide microarray
T10 peptide: DSLSSVTNATSIQ
Method: as §1, §2

[11] = target: T11, human CD26-derived 13 mer peptide 46 (human); experiment: peptide microarray
T11 construct: also called NKRQL1TEERIPN
T11 peptide: NKRQLITEERIPN
Method: as §1, §2

[12] = target: T12, human CD26-derived 13 mer peptide 32 (human); experiment: peptide microarray
T12 peptide: DGQFILLEYNYVK
Method: as §1, §2

[13] = target: T13, human CD26-derived 13 mer peptide 110 (human); experiment: peptide microarray
T13 peptide: VKFFVVNTDSLSS
Method: as §1, §2

[14] = target: T14, human CD26-derived 13 mer peptide 120 (human); experiment: peptide microarray
T14 peptide: QITAPASMLIGDH
Method: as §1, §2

[15] = target: T15, human CD26-derived 13 mer peptide 71 (human); experiment: peptide microarray
T15 peptide: TGKEDIIYNGITD
Method: as §1, §2

[16] = target: T16, human CD26-derived 13 mer peptide 116 (human); experiment: peptide microarray
T16 peptide: SVTNATSIQITAP
Method: as §1, §2

[17] = target: T17, human CD26-derived 13 mer peptide 45 (human); experiment: peptide microarray
T17 peptide: DLNKRQLITEERI
Method: as §1, §2

[18] = target: T18, human CD26-derived 13 mer peptide 111 (human); experiment: peptide microarray
T18 peptide: FFVVNTDSLSSVT
Method: as §1, §2

[19] = target: T19, human CD26-derived 13 mer peptide 105 (human); experiment: peptide microarray
T19 peptide: YPKAGAVNPTVKF
Method: as §1, §2

[20] = target: T20, human CD26-derived 13 mer peptide 27 (human); experiment: peptide microarray
T20 peptide: HSINDYSISPDGQ
Method: as §1, §2

[21] = target: T21, human CD26-derived 13 mer peptide 19 (human); experiment: peptide microarray
T21 peptide: GNSSVFLENSTFD
Method: as §1, §2

[22] = target: T22, human CD26-derived 13 mer peptide 16 (human); experiment: peptide microarray
T22 peptide: VFNAEYGNSSVFL
Method: as §1, §2

[23] = target: T23, human CD26-derived 13 mer peptide 23 (human); experiment: peptide microarray
T23 peptide: NSTFDEFGHSIND
Method: as §1, §2

[24] = target: T24, human CD26-derived 13 mer peptide 22 (human); experiment: peptide microarray
T24 peptide: LENSTFDEFGHSI
Method: as §1, §2

[25] = target: T25, human CD26-derived 13 mer peptide 119 (human); experiment: peptide microarray
T25 peptide: SIQITAPASMLIG
Method: as §1, §2

[26] = target: T26, human CD26-derived 13 mer peptide 44 (human); experiment: peptide microarray
T26 peptide: IYDLNKRQLITEE
Method: as §1, §2

[27] = target: T27, human CD26-derived 13 mer peptide 103 (human); experiment: peptide microarray
T27 peptide: VRVPYPKAGAVNP
Method: as §1, §2

[28] = target: T28, human CD26-derived 13 mer peptide 118 (human); experiment: peptide microarray
T28 peptide: ATSIQITAPASML
Method: as §1, §2

[29] = target: human CD26 on the cell surface (human, UniProt P27487 1-766); experiment: cell-based or functional assay
Chain of human CD26 on the cell surface (P27487 whole entry): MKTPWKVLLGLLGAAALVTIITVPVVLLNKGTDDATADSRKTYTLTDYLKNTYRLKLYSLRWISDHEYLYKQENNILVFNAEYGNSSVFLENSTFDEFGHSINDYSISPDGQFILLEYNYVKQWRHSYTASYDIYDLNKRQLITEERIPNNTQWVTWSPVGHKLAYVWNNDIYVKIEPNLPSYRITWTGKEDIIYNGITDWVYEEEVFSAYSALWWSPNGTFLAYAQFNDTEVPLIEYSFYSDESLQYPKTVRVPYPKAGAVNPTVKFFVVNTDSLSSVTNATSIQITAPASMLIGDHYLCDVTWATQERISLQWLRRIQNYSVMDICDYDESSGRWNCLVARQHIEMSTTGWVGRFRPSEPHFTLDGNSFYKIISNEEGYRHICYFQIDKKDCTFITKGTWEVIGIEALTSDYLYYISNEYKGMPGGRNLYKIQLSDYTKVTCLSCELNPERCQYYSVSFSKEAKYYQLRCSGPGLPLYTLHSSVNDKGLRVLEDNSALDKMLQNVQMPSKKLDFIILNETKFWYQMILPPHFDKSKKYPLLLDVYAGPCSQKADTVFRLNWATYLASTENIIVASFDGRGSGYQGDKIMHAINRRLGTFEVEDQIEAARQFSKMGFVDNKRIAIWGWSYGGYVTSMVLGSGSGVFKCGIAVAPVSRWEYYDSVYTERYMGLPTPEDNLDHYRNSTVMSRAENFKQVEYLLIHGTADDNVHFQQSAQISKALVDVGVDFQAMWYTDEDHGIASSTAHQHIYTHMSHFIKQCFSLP

[30] = target: T29, human CD26-derived 13 mer peptide 74 (human); experiment: peptide microarray
T29 peptide: IYNGITDWVYEEE
Method: as §1, §2

[31] = target: T30, human CD26-derived 13 mer peptide 113 (human); experiment: peptide microarray
T30 peptide: NTDSLSSVTNATS
Method: as §1, §2

[32] = target: T31, human CD26-derived 13 mer peptide 61 (human); experiment: peptide microarray
T31 peptide: WNNDIYVKIEPNL
Method: as §1, §2

[33] = target: T32, human CD26-derived 13 mer peptide 42 (human); experiment: peptide microarray
T32 peptide: ASYDIYDLNKRQL
Method: as §1, §2

[34] = target: T33, human CD26-derived 13 mer peptide 90 (human); experiment: peptide microarray
T33 peptide: AQFNDTEVPLIEY
Method: as §1, §2

[35] = target: T34, human CD26-derived 13 mer peptide 49 (human); experiment: peptide microarray
T34 construct: also called TEERJPNNTQWVT
T34 peptide: TEERIPNNTQWVT
Method: as §1, §2

[36] = target: T35, human CD26-derived 13 mer peptide 130 (human); experiment: peptide microarray
T35 peptide: ATQERISLQWLRR
Method: as §1, §2

[37] = target: T36, human CD26-derived 13 mer peptide 112 (human); experiment: peptide microarray
T36 peptide: VVNTDSLSSVTNA
Method: as §1, §2

[38] = target: T37, human CD26-derived 13 mer peptide 89 (human); experiment: peptide microarray
T37 peptide: AYAQFNDTEVPLI
Method: as §1, §2

[39] = target: T38, human CD26-derived 13 mer peptide 115 (human); experiment: peptide microarray
T38 peptide: LSSVTNATSIQIT
Method: as §1, §2

[40] = target: T39, human CD26-derived 13 mer peptide 100 (human); experiment: peptide microarray
T39 peptide: LQYPKTVRVPYPK
Method: as §1, §2

[41] = target: T40, human CD26-derived 13 mer peptide 122 (human); experiment: peptide microarray
T40 peptide: PASMLIGDHYLCD
Method: as §1, §2

[42] = target: T41, human CD26-derived 13 mer peptide 20 (human); experiment: peptide microarray
T41 peptide: SSVFLENSTFDEF
Method: as §1, §2

[43] = target: T42, human CD26-derived 13 mer peptide 96 (human); experiment: peptide microarray
T42 peptide: YSFYSDESLQYPK
Method: as §1, §2

[44] = target: T43, human CD26-derived 13 mer peptide 106 (human); experiment: peptide microarray
T43 peptide: KAGAVNPTVKFFV
Method: as §1, §2

[45] = target: T44, human CD26-derived 13 mer peptide 104 (human); experiment: peptide microarray
T44 peptide: VPYPKAGAVNPTV
Method: as §1, §2

[46] = target: T45, human CD26-derived 13 mer peptide 109 (human); experiment: peptide microarray
T45 peptide: PTVKFFVVNTDSL
Method: as §1, §2

[47] = target: T46, human CD26-derived 13 mer peptide 51 (human); experiment: peptide microarray
T46 peptide: IPNNTQWVTWSPV
Method: as §1, §2

[48] = target: T47, human CD26-derived 13 mer peptide 99 (human); experiment: peptide microarray
T47 peptide: ESLQYPKTVRVPY
Method: as §1, §2

[49] = target: T48, human CD26-derived 13 mer peptide 108 (human); experiment: peptide microarray
T48 peptide: VNPTVKFFVVNTD
Method: as §1, §2

[50] = target: T49, human CD26-derived 13 mer peptide 88 (human); experiment: peptide microarray
T49 peptide: FLAYAQFNDTEVP
Method: as §1, §2

[51] = target: T50, human CD26-derived 13 mer peptide 102 (human); experiment: peptide microarray
T50 peptide: KTVRVPYPKAGAV
Method: as §1, §2

[52] = target: T51, human CD26-derived 13 mer peptide 117 (human); experiment: peptide microarray
T51 peptide: TNATSIQITAPAS
Method: as §1, §2

[53] = target: T52, human CD26-derived 13 mer peptide 12 (human); experiment: peptide microarray
T52 peptide: YKQENNILVFNAE
Method: as §1, §2

B1: rhuMAb 420 (antibody, human IgG1, V domains shown)
VH: EVQLVESGGGVKQPGETLRLTCTASGFSLSTYGVHWVRQAPGKGLEWVGVIWGDGRTDYDAAFMSRVTISKDTSKSTVYLQMNSLRAEDTAVYYCMRNRHDWFDYWGQGTTVTVSS
VL: EIEMTQSPSSLSVSAGERATISCSASQDIRNSLNWYQQKPGQAPRLLIYYSSNLHTGVPARFSGSGSGTDFTLTISRLEPEDVAIYYCQQSNKLPLTFGSGTKVEIKR
notes: X420 VH and X380 VL with human IgG1 and human kappa constant regions; also called X420 (IgG1)
9.6%: percent inhibition, MTT assay, Jurkat CD26+ cells, 0.25 ug/ml [29]
3.7%: percent inhibition, MTT assay, Jurkat CD26+ cells, 0.05 ug/ml [29]
0: Mean Signal Value [1] | Mean Signal Value [2] | Mean Signal Value [3] | Mean Signal Value [4] | Mean Signal Value [5] | Mean Signal Value [6] | Mean Signal Value [7] | Mean Signal Value [8] | Mean Signal Value [9] | Mean Signal Value [10] | Mean Signal Value [11] | Mean Signal Value [12] | Mean Signal Value [13] | Mean Signal Value [14] | Mean Signal Value [15] | Mean Signal Value [16] | Mean Signal Value [17] | Mean Signal Value [18] | Mean Signal Value [19] | Mean Signal Value [20] | Mean Signal Value [21] | Mean Signal Value [22] | Mean Signal Value [23] | Mean Signal Value [24] | Mean Signal Value [25] | Mean Signal Value [26] | Mean Signal Value [27] | Mean Signal Value [28]
9.2%: percent inhibition, MTT assay, Jurkat CD26+ cells, 0.5 ug/ml [29]
15.9%: percent inhibition, MTT assay, Jurkat CD26+ cells, 5 ug/ml [29]
16.6%: percent inhibition, MTT assay, Jurkat CD26+ cells, 2.5 ug/ml [29]

B2: rhuMAb 409 (antibody, human IgG1, V domains shown)
VH: QVKLQESGPGLVQPSQTLSITCTVSGFSLTTYGVHWVRQSPGKGLEWLGVIWGGGRTDYDAAFISRLSISKDNSKSQVFFKMNSLQANDTAIYYCVRNRHDWFDYWGQGTTVTVSS
VL: DIQMTQSPSSLSASLGDRVTITCSASQGIRNSLNWYQQKPDGAVKLLIYYSSNLHSGVPSRFSGSGSGTDFSLTISNLEPEDIATYYCQQSIKLPFTFGSGTKLEIKR
notes: CM03 VH and VL with human IgG1 heavy chain constant region and human kappa constant region; also called X409
12.9%: percent inhibition, MTT assay, Jurkat CD26+ cells, 0.25 ug/ml [29]
19.7%: percent inhibition, MTT assay, Jurkat CD26+ cells, 2.5 ug/ml [29]
10: Mean Signal Value [36]
21.7%: percent inhibition, MTT assay, Jurkat CD26+ cells, 5 ug/ml [29]
0: Mean Signal Value [30] | Mean Signal Value [1] | Mean Signal Value [31] | Mean Signal Value [2] | Mean Signal Value [32] | Mean Signal Value [33] | Mean Signal Value [3] | Mean Signal Value [34] | Mean Signal Value [4] | Mean Signal Value [35] | Mean Signal Value [6] | Mean Signal Value [7] | Mean Signal Value [37] | Mean Signal Value [8] | Mean Signal Value [38] | Mean Signal Value [9] | Mean Signal Value [10] | Mean Signal Value [39] | Mean Signal Value [11] | Mean Signal Value [13] | Mean Signal Value [14] | Mean Signal Value [40] | Mean Signal Value [41] | Mean Signal Value [42] | Mean Signal Value [43] | Mean Signal Value [16] | Mean Signal Value [17] | Mean Signal Value [18] | Mean Signal Value [19] | Mean Signal Value [44] | Mean Signal Value [20] | Mean Signal Value [21] | Mean Signal Value [45] | Mean Signal Value [46] | Mean Signal Value [23] | Mean Signal Value [24] | Mean Signal Value [47] | Mean Signal Value [48] | Mean Signal Value [25] | Mean Signal Value [49] | Mean Signal Value [26] | Mean Signal Value [50] | Mean Signal Value [27] | Mean Signal Value [51] | Mean Signal Value [52] | Mean Signal Value [28] | Mean Signal Value [53]
4.8%: percent inhibition, MTT assay, Jurkat CD26+ cells, 0.05 ug/ml [29]
14.7%: percent inhibition, MTT assay, Jurkat CD26+ cells, 0.5 ug/ml [29]
